Here are results for 36 molecules from patent US20250361305A1 (ORIONIS BIOSCIENCES, published 2025).

Residue numbers refer to the chain shown, from its start.

B1: 3LIG7 (VHH)
VHH: QVQLQESGGGLVQAGGSLRLSCAASGFTFSSYGMSWVRQTPGKGPEWVSAIDSGGGSTSYADSVKGRFTISRDNAKNTLYLQMNSLKPEDTAVYYCAQGYYCSGYGCSDYWGQGTQVTVSS
notes: PD-L1 VHH
B2: 3LIG9 (VHH)
VHH: B1 VHH with A14P
notes: PD-L1 VHH
B3: 2LIG29 (VHH)
VHH: B1 VHH with A14T
notes: PD-L1 VHH
B4: 2LIG35 (VHH)
VHH: B1 VHH with A14P, I70T
notes: PD-L1 VHH
B5: 3LIG29 (VHH)
VHH: B1 VHH with L18M
notes: PD-L1 VHH
B6: 2LIG109 (VHH)
VHH: B1 VHH with A14S, A23K, A24T
notes: PD-L1 VHH
B7: 2LIG85 (VHH)
VHH: QVQLQESGGGLVQPGGSLRLSCAASGFTFTAYAMSWFRQAPGKEREEVSCINSSDGSTYYADSVKGRFTISRDNAKNTVYLQMNSLKPEDTAVYHCATDGWRDCTWSNEYAYWGQGTQVTVSS
notes: PD-L1 VHH
B8: 2LIG27 (VHH)
VHH: QVQLQESGGGVVQAGGSLRLSCTASGTIFSINRMDWFRQAPGKQRELVALITSDGTPTYADSAKGRFTISRDNTKKTVSLQMNSLKPEDTAVYYCHVSSGVYNYWGQGTQVTVSS
notes: PD-L1 VHH
B9: 2LIG3 (VHH)
VHH: B8 VHH with V11L, R33H, T56F
notes: PD-L1 VHH
B10: 2LIG99 (VHH)
VHH: B8 VHH with V11L, T58A
notes: PD-L1 VHH
B11: 2LIG97 (VHH)
VHH: B8 VHH with V11L, G16E
notes: PD-L1 VHH
B12: 3LIG8 (VHH)
VHH: B8 VHH with V11L, A14P
notes: PD-L1 VHH
B13: 2LIG34 (VHH)
VHH: B8 VHH with V11S
notes: PD-L1 VHH
B14: 2LIG48 (VHH)
VHH: QVQLQESGGGLVQPGGSLRLSCAASGFTFNDYAMSWVRQAPGKGLEWVSGIRSNGGYTNYADSVKGRFTISRDNAKNTLYLQMNSLKSEDTAVYYCAQGYYCSGYGCYPGQGTQVTVSS
notes: PD-L1 VHH
B15: 2LIG16 (VHH)
VHH: B14 VHH with N30D, A33G, G50A, S53W, Y57S, Y108P, P109R
notes: PD-L1 VHH
B16: 3LIG30 (VHH)
VHH: B14 VHH with L11T, P14A
notes: PD-L1 VHH
B17: 2LIG176 (VHH)
VHH: QVQLQESGGGLVQAGGSLRLSCAASESIFSIEAMGWYRQAPGKQRELVAAIFGGGFTNYADSVKGRFTISRDNANRTVYLQMNSLKPEDTAVYYCNADLVSGSSRLYDYWGQGTQVTVSS
notes: PD-L1 VHH
B18: 2LIG22 (VHH)
VHH: QVQLQESGGGLVQPGGSLRLSCAASGFTLDYYAINWFRQAPGKEREEVSCISSSDGSTYYADSVKGRFTISRDNAKNTVYLQMNSLKPEDTAVYYCATSGWRLCRPTDEYDYSYWGQGTQVTVSS
notes: PD-L1 VHH
B19: 3LIG28 (VHH)
VHH: B18 VHH with S113L
notes: PD-L1 VHH
B20: 2LIG30 (VHH)
VHH: QVQLQESGGGLVQPGGSLRLSCAASGKIFSGNDMGWYRQAPGKQRELVGIITSGGITDYADAVKGRFTISRDNAKNMMYLQMNSLKPEDTAVYYCNMRDRTIWWGQGTQVTVSS
notes: PD-L1 VHH
B21: 2LIG189 (VHH)
VHH: B20 VHH with P14A
notes: PD-L1 VHH
B22: 2LIG86 (VHH)
VHH: QVQLQESGGGLVQPGGSLRLSCAASGFTFDYYAIGWFRQAPGKEREEVSCISGSDSSTYYADSVKGRFTIVRDNAQNTVYLQMNSLKPEDTAIYYCAVTGWRTCRGLNEYDYWGQGTQVTVSS
notes: PD-L1 VHH
B23: 2LIG2 (VHH)
VHH: QVQLQESGGGLVQAGGSLRLSCAASGFTLDYYAIGWFRQAPGKEREEVSCISSSDGSTYYADSVKGRFTISRDNAKNTVNLQMNSLKPEDTAVYYCATDGWSSCRHGINEYLYWGQGTQVTVSS
notes: PD-L1 VHH
B24: 3LIG3 (VHH)
VHH: B23 VHH with A14P
notes: PD-L1 VHH
B25: 3LIG33 (VHH)
VHH: B23 VHH with A14P, G16T
notes: PD-L1 VHH
B26: 3LIG18 (VHH)
VHH: QVQLQESGGGLVQPGGSLRLSCAASGFNLDPYAIAWFRQAPGKEREEVSCISSSDVGTYYADSVKGRFTISRDNAKKTVYLQMNSLKPEDTAVYYCATDGYYYCSDYPHPLYWGQGTQVTVSS
notes: PD-L1 VHH
B27: 2LIG127 (VHH)
VHH: B26 VHH with A35G, S54G, V56G, G57S, T58K, I70M
notes: PD-L1 VHH
B28: 2LIG139 (VHH)
VHH: B26 VHH with A24V
notes: PD-L1 VHH
B29: 2LIG89 (VHH)
VHH: B26 VHH with A75T
notes: PD-L1 VHH
B30: 2LIG65 (VHH)
VHH: B26 VHH with P14A
notes: PD-L1 VHH
B31: 2PD-16 (VHH)
VHH: QVQLQESGGGLVQAGGSLRLSCAASGGFNRVSYMGWYRQAPGTKRELVASVTSGGEITIADSVKGRFTVSRDNSKNTLYLQMNGLKPEDGATYWCNADIWVSDARMYNYWGQGTQVTVSS
notes: PD-1 VHH
B32: 2PD71 (VHH)
VHH: B31 VHH with A14T, G16E, T43S, I59V, S74N
notes: PD-1 VHH
B33: 2PD23 (VHH)
VHH: QVQLQESGGGLVQPGGSLRLSCAASGFSMDYYAIAWFRQAPGKEREEISCITGSDFMVDTYYVASVKGRFTISRDNAENTAYLQMNNLKPEDTGVYFCAVRSTANTLCPSHYSVMDYWGKGTQVTVSS
notes: PD-1 VHH
B34: 2PD90 (VHH)
VHH: B33 VHH with A23S, M29V, E78K, N87S, V114I
notes: PD-1 VHH
B35: 2PD-106 (VHH)
VHH: B33 VHH with A23S, E78K, Y82H, N87S
notes: PD-1 VHH
B36: 2PD26 (VHH)
VHH: B33 VHH with P14A
notes: PD-1 VHH

The target of one assay is T1, PD-L1 antigen (ELISA of Example 2) (human, UniProt Q9NZQ7 19-239, limits assumed). The assay is described as follows: ELISA, signal on PD-L1 antigen. (ELISA stands for enzyme-linked immunosorbent assay.)
T1 sequence (Q9NZQ7 19-239 limits assumed): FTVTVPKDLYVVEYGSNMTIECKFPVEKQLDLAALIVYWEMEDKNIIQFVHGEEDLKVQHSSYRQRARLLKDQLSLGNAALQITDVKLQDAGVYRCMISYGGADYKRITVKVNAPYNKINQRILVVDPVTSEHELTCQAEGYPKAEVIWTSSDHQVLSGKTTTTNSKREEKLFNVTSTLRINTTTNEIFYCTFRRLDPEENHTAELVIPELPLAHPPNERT
In turn, B1 yielded an ELISA of 3.64.
The same measure, in the same setting: as for B2, the figure is 3.66.
On the same count and under the same terms, then B3, with 3.77; and B4, with 0.844.
The same measure, in the same setting: as for B5, the figure is 3.96; as for B6, 3.55; as for B7, 2.67.
For B8, the ELISA turned out to be 0.429.
For the molecule B9, the ELISA turned out to be 1.46.
As to B10, the ELISA came out at 2.11.
Still for that read-out and setting: as for B11, the figure is 1.03; as for B12, 0.429.
On the same count and under the same terms, then B13, with 0.568; and B14, with 4.
The same measure, in the same setting: as for B15, the figure is 3.02; as for B16, 4; as for B17, 0.415.
For the molecule B18, the ELISA is 0.469.
Still for that read-out and setting: then B19, with 3.03; and B20, with 1.11.
Still for that read-out and setting: as for B21, the figure is 2.23; as for B22, 3.8; as for B23, 0.51.
On to B24, for which the ELISA was 0.58.
On to B25, for which the ELISA amounted to 1.76.
On to B26, for which the ELISA was found to be 3.5.
On the same count and under the same terms, as for B27, the figure is 3.73.
Still for that read-out and setting: as for B28, the figure is 4; as for B29, 2.88.
Same read-out and setting: as for B30, the figure is 2.11.

The target in the next assay is T1, PD-L1 antigen (ELISA of Example 2). Description: ELISA, signal on PD-L1 antigen over control.
In turn, B1 had an A/control of 37.6.
The same measure, in the same setting: as for B2, the figure is 37.7.
As to B3, the A/control was found to be 34.6.
B4 registered an A/control of 8.18.
On the same count and under the same terms, then B5, with 40.9; and B6, with 32.6; and B7, with 22.6.
Molecule B8 had an A/control of 3.78.
On the same count and under the same terms, as for B9, the figure is 9.75.
In turn, B10 came in with an A/control of 9.16.
B11 came in with an A/control of 5.13.
Still for that read-out and setting: then B12, with 4.39; and B13, with 3.59; and B14, with 33.2.
Regarding B15, the A/control amounted to 26.4.
The same measure, in the same setting: as for B16, the figure is 47.3; as for B17, 4.22; as for B18, 4.55.
Same read-out and setting: then B19, with 33.2.
On the same count and under the same terms, as for B20, the figure is 9.59; as for B21, 12.9.
B22 gave an A/control of 33.6.
Same read-out and setting: then B23, with 3.86; and B24, with 7.16; and B25, with 19.1.
The same measure, in the same setting: then B26, with 40.
On the same count and under the same terms, then B27, with 34.6; and B28, with 33.3.
As to B29, the A/control amounted to 27.2.
Still for that read-out and setting: then B30, with 23.6.

For the next assay, the target named is T2, PD-1 antigen (ELISA of Example 2) (human, UniProt Q15116 25-167, limits assumed). The assay is described as follows: ELISA, signal on PD-1 antigen. Also: test concentration or dose not given here.
T2 sequence (Q15116 25-167 limits assumed): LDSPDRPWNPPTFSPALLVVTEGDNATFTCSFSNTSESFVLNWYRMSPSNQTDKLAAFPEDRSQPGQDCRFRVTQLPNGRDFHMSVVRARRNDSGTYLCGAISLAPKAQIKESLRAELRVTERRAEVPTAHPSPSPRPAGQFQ
For B31, the “ELISA A” value turned out to be 1.83.
The same measure, in the same setting: then B32, with 2.51; and B33, with 0.94.
Same read-out and setting: then B34, with 1.34; and B35, with 1.46; and B36, with 0.718.

The target in a further assay is T2, PD-1 antigen (ELISA of Example 2). The assay is described as follows: ELISA, signal on PD-1 antigen over control.
The molecule B31 returned an A/control of 3.84.
B32 showed an A/control of 3.59.
The same measure, in the same setting: as for B33, the figure is 4.56; as for B34, 5.23; as for B35, 6.9.
Same read-out and setting: then B36, with 4.2.
